# Measurements: FireProtDB (doi:10.1021/bi060907v)
# Settings: Thermococcus kodakarensis (strain ATCC BAA-918 / JCM 12380 / KOD1), pH 9, reversible: Yes, whole UniProt chain shown
# [1] = 50 °C, GdnHCl, CD, Tris-HCl 20 mM
protein,measurement,setting,value
"Ribonuclease HII wild type, O74035 (protein) MKIAGIDEAGRGPVIGPMVIAAVVVDENSLPKLEELKVRDSKKLTPKRREKLFNEILGVLDDYVILELPPDVIGSREGTLNEFEVENFAKALNSLKVKPDVIYADAADVDEERFARELGERLNFEAEVVAKHKADDIFPVVSAASILAKVTRDRAVEKLKEEYGEIGSGYPSDPRTRAFLENYYREHGEFPPIVRKGWKTLKKIAEKVESEKKAEERQATLDRYFRKV",denaturant m value,[1],5.64 kcal/mol/M
same,denaturant midpoint (higher = more stable),[1],1.85 M
same,Tm,"Thermal, DSC, Gly-NaOH 20 mM",85.2 °C
same,unfolding enthalpy (calorimetric),"Thermal, DSC, Gly-NaOH 20 mM",137 kcal/mol
same,unfolding enthalpy (van 't Hoff),"Thermal, DSC, Gly-NaOH 20 mM",163 kcal/mol
